In this assay the target is T1, K(FEFK)2K.
T1 construct: designed amphipathic self-assembling peptide, L-amino acids; printed in short form K(FEFK)2K and written out here; forms beta-sheet-rich fibres and a hydrogel at pH 7; also called base peptide; peptide 1; source: synthetic peptide; bought: LifeTein Inc. (HCl salt, nominal purity 95%)
T1 peptide: KFEFKFEFKK
Description: FRET or BRET; FITC/Dabcyl quenching in mixed hydrogels: base peptide 3.75 mg mL^-1 plus secondary peptide, total 7.5 mg mL^-1 (mass ratio 1:1), pH 7, water; powders mixed before dissolving, pH raised stepwise with NaOH; quenching percentage compared with base hydrogels at 3.75 and 7.5 mg mL^-1. In general terms: In BRET a luciferase serves as donor, and the signal depends on an acceptor being close.

As to K(FEFK)2K (peptide), the fluorescence quenching percentage came out at 30%.

B1: (FEFK)2K (peptide)
peptide: FEFKFEFKK
notes: designed amphipathic peptide; printed in short form (FEFK)2K and written out here; source: synthetic peptide; bought: LifeTein Inc. (HCl salt, nominal purity 95%)
In the case of B1, under “both partners purified”, the binding result is “binds”.

Source of the values: publication PMC12236388, “Investigating the co-assembly of amphipathic peptides” (Faraday Discussions, 2025).
